Laboratory results from US20230242871A1, “GENERATION OF PRIMORDIAL GERM CELLS AND METHODS OF USING THE SAME” (The Board of Trustees of the Leland Stanfor Junior …, priority 2020, published 2023).

System: NANOS3-mCherry hESCs
Experiment: PGC differentiation of NANOS3-mCherry hESCs, flow cytometry for NANOS3-mCherry fluorescent reporter expression
Assay type: cell-based, human
Source text: In the NANOS3-mCherry hESC line, a 2A-mCherry fluorescent reporter was inserted immediately downstream of the NANOS3 gene without disrupting its coding sequence (Irie et al., 2014). In the SOX17-GFP hESC line, a GFP fluorescent reporter was inserted immediately after the SOX17 start codon, thus functionally invalidating one SOX17 allele (Wang et al., 2011). In the NANOG-2A-YFP hESC line, Cas9 RNP/AAV6-based genome editing (Martin et al., 2019) was used to insert a 2A-iCaspase9-2A-YFP fluorescent reporter immediately downstream of the NANOG gene without disrupting the NANOG coding sequence.
hPSC differentiation into PGCs. Undifferentiated hPSCs were maintained in mTeSR1 + 1% penicillin/streptomycin and enzymatically passaged (Accutase, 1:8-1:12 split) for differentiation. After overnight recovery in mTeSR1 + Thiazovivin (ROCK inhibitor, 5 µM), the following morning, hPSCs were briefly washed (DMEM/F12) and differentiated into posterior epiblast for 12 hours (100 ng/mL Activin + 3 µM CHIR99021 + 10 µM Y-27632) in aRB27 basal media, which comprised Advanced RPMI 1640 medium supplemented with 1% B27 supplement, 0.1 mM non-essential amino acids (NEAA), 100 U/ml Penicillin + 0.1 mg/ml Streptomycin, and 2 mM L-Glutamine (Kobayashi et al., 2017). Subsequently, […], […], […], 100 ng/mL SCF, 50 ng/mL EGF, 1 µM XAV939, and 10 µM Y-27632 for 24 hours (all in aRB27 basal media). For comparison, published PGC differentiation protocols (Sasaki et al., 2015; Kobayashi et al., 2017) were performed as described previously.
Flow cytometry and fluorescence-activated cell sorting (FACS) for cell-surface marker expression. hPSCs or their differentiated derivatives were dissociated using TrypLE Express (Gibco), were washed off the plate with FACS buffer (PBS + 0.1% BSA fraction V [Gibco] + 1 mM EDTA [Gibco] + 1% penicillin/streptomycin [Gibco]) and were pelleted by centrifugation (5 mins, 4° C.). Subsequently, cell pellets were directly resuspended in FACS buffer containing pre-diluted primary antibodies (listed below), thoroughly triturated to ensure a single cell suspension, and primary antibody staining was conducted for 30 mins on ice. Afterwards, cells were washed with an excess of FACS buffer and pelleted again, and this was conducted one more time. Finally, washed cell pellets were resuspended in FACS buffer containing 1.1 µM DAPI (Biolegend), and were strained through a 35 µm filter. Flow cytometry and sorting was conducted on a BD FACSAria II (Stanford Stem Cell Institute FACS Core).

B1: BMP4: bone morphogenetic protein 4, UniProt P12644 (protein, UniProt P12644 293-408, looked up)
Bone morphogenetic protein 4: SPKHHSQRARKKNKNCRRHSLYVDFSDVGWNDWIVAPPGYQAFYCHGDCPFPLADHLNSTNHAIVQTLVNSVNSSIPKACCVPTELSAISMLYLDEYDKVVLKNYQEMVVEGCGCR
efficiency upon BMP4 subtraction (BMP4 subtraction from D1.5-2.5, in BMP4 + SCF + EGF + XAV939 + Y-27632 D0.5-3.5, readout D3.5, FIG. 5C): enhance efficiency | efficiency on BMP4 titration (BMP4 titrated to 20 ng/mL on D0.5-3.5, monolayer, readout D3.5, FIG. 5D): without significant loss in efficiency | differentiation of PGCs, BMP4 not omitted (continuous BMP4 in second phase, FIG. 5C): about 10% | differentiation of PGCs, BMP4 omitted (omitting BMP4 from the culture media for 24 hrs at day 2 of differentiation, FIG. 5C): ~30%
